Numbered stars: 1 amine (or outer) side, 2 acyl side, 3 side chain; on linkers, the order of the positions; unused ones are H or OH. Bridge positions count the residues as written; N and C are the ends. Side chains are listed from the residue outwards. Ends that are not written are not given here. * marks the point of attachment. C20 diacid = O=C(O)CCCCCCCCCCCCCCCCCCC(=O)*; γGlu = O=C(O)[C@H](CCC(=O)[*:2])N[*:1]; AEEA = NCCOCCOCC(=O)O
Experiments:
[1] = target: T1, human calcitonin receptor (human, UniProt P30988 25-474); assay: cell-based or functional assay
T1 sequence (looked up): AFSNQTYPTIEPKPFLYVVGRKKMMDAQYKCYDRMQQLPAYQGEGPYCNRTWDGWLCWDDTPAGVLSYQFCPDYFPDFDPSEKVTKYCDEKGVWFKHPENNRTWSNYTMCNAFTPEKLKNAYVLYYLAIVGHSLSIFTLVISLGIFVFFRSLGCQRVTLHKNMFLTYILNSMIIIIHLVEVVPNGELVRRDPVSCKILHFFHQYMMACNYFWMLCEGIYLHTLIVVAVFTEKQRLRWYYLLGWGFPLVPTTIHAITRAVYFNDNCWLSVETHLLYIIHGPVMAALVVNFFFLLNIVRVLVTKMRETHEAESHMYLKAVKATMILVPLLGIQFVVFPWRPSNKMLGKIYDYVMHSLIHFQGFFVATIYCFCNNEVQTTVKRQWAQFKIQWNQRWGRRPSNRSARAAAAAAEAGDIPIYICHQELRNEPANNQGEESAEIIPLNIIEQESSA

[2] = target: T2, human calcitonin receptor (human, UniProt P30988 25-474); assay: ratio of IC50 at hCTR over IC50 at hAmylin-R (SPA competition assays)
T2 construct: whole, on cells; Membranes of BHK cells stably transfected with the human calcitonin receptor (Assay VII); also called hCTR; hCT
T2 sequence (looked up): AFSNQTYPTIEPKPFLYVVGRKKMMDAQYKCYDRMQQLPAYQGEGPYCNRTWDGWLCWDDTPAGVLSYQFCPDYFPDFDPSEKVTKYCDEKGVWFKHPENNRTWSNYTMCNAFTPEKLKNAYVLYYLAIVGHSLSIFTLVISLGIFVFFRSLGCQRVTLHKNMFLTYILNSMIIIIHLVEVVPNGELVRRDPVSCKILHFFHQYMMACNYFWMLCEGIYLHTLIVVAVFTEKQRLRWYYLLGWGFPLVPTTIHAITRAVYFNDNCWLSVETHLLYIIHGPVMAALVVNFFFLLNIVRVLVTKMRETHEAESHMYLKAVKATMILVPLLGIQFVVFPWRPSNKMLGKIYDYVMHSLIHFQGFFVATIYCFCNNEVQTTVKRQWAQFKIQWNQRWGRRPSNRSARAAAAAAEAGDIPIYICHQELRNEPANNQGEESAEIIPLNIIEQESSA
Outline: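 Competition binding by SPA uses membrane preparations (35 ng/μL final) in pH 7.4 Hepes buffer with 1 mM CaCl2 and 5 mM MgCl₂. Incubation lasts 120 min at 25° C, and IC₅₀ comes from one-site fitting.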

[3] = target: T2, human calcitonin receptor; assay: SPA competition against 125I-calcitonin, membranes of BHK cells with human calcitonin receptor (Assay VII)
Outline: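 BHK hCTR membranes 35 ng/μL + SPA beads 0.05 mg/well; buffer 50 mM Hepes pH 7.4, 1 mM CaCl2, 5 mM MgCl₂, 0.1% OA, 0.02% Tween20. 120 min, 25° C., shaking. Scintillation count; IC50 by one-site binding competition.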

B1: N^ε1-[2-[2-[2-[[2-[2-[2-[[(4S)-4-carboxy-4-(19-carboxynonadecanoylamino)butanoyl]amino]ethoxy]ethoxy]acetyl]amino]ethoxy]ethoxy]acetyl]-[Arg17,Pro21,Pro27,His34 … (peptide)
peptide: K([AEEA-AEEA-γGlu-C20 diacid])CNTATCATQRLANFLRHSSPNFGAIPSSTNVGHNTY-NH2
modifications: disulfide 2-7; N-terminus assumed
SMILES: CC[C@H](C)[C@H](NC(=O)[C@H](C)NC(=O)CNC(=O)[C@H](Cc1ccccc1)NC(=O)[C@H](CC(N)=O)NC(=O)[C@@H]1CCCN1C(=O)[C@H](CO)NC(=O)[C@H](CO)NC(=O)[C@H](Cc1c[nH]cn1)NC(=O)[C@H](CCCNC(=N)N)NC(=O)[C@H](CC(C)C)NC(=O)[C@H](Cc1ccccc1)NC(=O)[C@H](CC(N)=O)NC(=O)[C@H](C)NC(=O)[C@H](CC(C)C)NC(=O)[C@H](CCCNC(=N)N)NC(=O)[C@H](CCC(N)=O)NC(=O)[C@@H](NC(=O)[C@H](C)NC(=O)[C@@H]1CSSC[C@H](NC(=O)[C@@H](N)CCCCNC(=O)COCCOCCNC(=O)COCCOCCNC(=O)CC[C@H](NC(=O)CCCCCCCCCCCCCCCCCCC(=O)O)C(=O)O)C(=O)N[C@@H](CC(N)=O)C(=O)N[C@@H]([C@@H](C)O)C(=O)N[C@@H](C)C(=O)N[C@@H]([C@@H](C)O)C(=O)N1)[C@@H](C)O)C(=O)N1CCC[C@H]1C(=O)N[C@@H](CO)C(=O)N[C@@H](CO)C(=O)N[C@H](C(=O)N[C@@H](CC(N)=O)C(=O)N[C@H](C(=O)NCC(=O)N[C@@H](Cc1c[nH]cn1)C(=O)N[C@@H](CC(N)=O)C(=O)N[C@H](C(=O)N[C@@H](Cc1ccc(O)cc1)C(N)=O)[C@@H](C)O)C(C)C)[C@@H](C)O
notes: synthetic peptide amide; also called compound 97
hCTR funct. EC50 (pM) [1]: 11800 pM

B2: N^ε1-[2-[2-[2-[[2-[2-[2-[[(4S)-4-carboxy-4-(19-carboxynonadecanoylamino)butanoyl]amino]ethoxy]ethoxy]acetyl]amino]ethoxy]ethoxy]acetyl]-[Arg17,Pro21,Pro27,Pro34 … (peptide)
peptide: K([AEEA-AEEA-γGlu-C20 diacid])CNTATCATQRLANFLRHSSPNFGAIPSSTNVGPNTY-NH2
modifications: disulfide 2-7; N-terminus assumed
SMILES: CC[C@H](C)[C@H](NC(=O)[C@H](C)NC(=O)CNC(=O)[C@H](Cc1ccccc1)NC(=O)[C@H](CC(N)=O)NC(=O)[C@@H]1CCCN1C(=O)[C@H](CO)NC(=O)[C@H](CO)NC(=O)[C@H](Cc1c[nH]cn1)NC(=O)[C@H](CCCNC(=N)N)NC(=O)[C@H](CC(C)C)NC(=O)[C@H](Cc1ccccc1)NC(=O)[C@H](CC(N)=O)NC(=O)[C@H](C)NC(=O)[C@H](CC(C)C)NC(=O)[C@H](CCCNC(=N)N)NC(=O)[C@H](CCC(N)=O)NC(=O)[C@@H](NC(=O)[C@H](C)NC(=O)[C@@H]1CSSC[C@H](NC(=O)[C@@H](N)CCCCNC(=O)COCCOCCNC(=O)COCCOCCNC(=O)CC[C@H](NC(=O)CCCCCCCCCCCCCCCCCCC(=O)O)C(=O)O)C(=O)N[C@@H](CC(N)=O)C(=O)N[C@@H]([C@@H](C)O)C(=O)N[C@@H](C)C(=O)N[C@@H]([C@@H](C)O)C(=O)N1)[C@@H](C)O)C(=O)N1CCC[C@H]1C(=O)N[C@@H](CO)C(=O)N[C@@H](CO)C(=O)N[C@H](C(=O)N[C@@H](CC(N)=O)C(=O)N[C@H](C(=O)NCC(=O)N1CCC[C@H]1C(=O)N[C@@H](CC(N)=O)C(=O)N[C@H](C(=O)N[C@@H](Cc1ccc(O)cc1)C(N)=O)[C@@H](C)O)C(C)C)[C@@H](C)O
notes: synthetic peptide amide; also called compound 98
hCTR funct. EC50 (pM) [1]: 1630 pM

B3: N^ε1-[(4S)-4-carboxy-4-(19-carboxynonadecanoylamino)butanoyl]-[Glu14,Arg17,Pro21,Pro27,Pro34,Glu35]-h-amylin (peptide)
peptide: K([γGlu-C20 diacid])CNTATCATQRLAEFLRHSSPNFGAIPSSTNVGPETY-NH2
modifications: disulfide 2-7; N-terminus assumed
SMILES: CC[C@H](C)[C@H](NC(=O)[C@H](C)NC(=O)CNC(=O)[C@H](Cc1ccccc1)NC(=O)[C@H](CC(N)=O)NC(=O)[C@@H]1CCCN1C(=O)[C@H](CO)NC(=O)[C@H](CO)NC(=O)[C@H](Cc1c[nH]cn1)NC(=O)[C@H](CCCNC(=N)N)NC(=O)[C@H](CC(C)C)NC(=O)[C@H](Cc1ccccc1)NC(=O)[C@H](CCC(=O)O)NC(=O)[C@H](C)NC(=O)[C@H](CC(C)C)NC(=O)[C@H](CCCNC(=N)N)NC(=O)[C@H](CCC(N)=O)NC(=O)[C@@H](NC(=O)[C@H](C)NC(=O)[C@@H]1CSSC[C@H](NC(=O)[C@@H](N)CCCCNC(=O)CC[C@H](NC(=O)CCCCCCCCCCCCCCCCCCC(=O)O)C(=O)O)C(=O)N[C@@H](CC(N)=O)C(=O)N[C@@H]([C@@H](C)O)C(=O)N[C@@H](C)C(=O)N[C@@H]([C@@H](C)O)C(=O)N1)[C@@H](C)O)C(=O)N1CCC[C@H]1C(=O)N[C@@H](CO)C(=O)N[C@@H](CO)C(=O)N[C@H](C(=O)N[C@@H](CC(N)=O)C(=O)N[C@H](C(=O)NCC(=O)N1CCC[C@H]1C(=O)N[C@@H](CCC(=O)O)C(=O)N[C@H](C(=O)N[C@@H](Cc1ccc(O)cc1)C(N)=O)[C@@H](C)O)C(C)C)[C@@H](C)O
Ratio hCT/hAmylin binding [2]: 13.3 | IC50 [3]: 1.86 nM
